Measurements published in PMC5261807 (2017).
Non-standard residues stand in square brackets, D forms with d. No end group written: not given here. Arg(Me2a) = CN(C)C(=N)NCCC[C@H](N)C(=O)O; Lys(Me3) = C[N+](C)(C)CCCC[C@H](N)C(=O)O; Arg(Me2s) = CN=C(NC)NCCC[C@H](N)C(=O)O; pT = C[C@@H](OP(=O)(O)O)[C@H](N)C(=O)O; Lys(Me2) = CN(C)CCCC[C@H](N)C(=O)O; Me2s = symmetric dimethyl (on Arg); pS = N[C@@H](COP(=O)(O)O)C(=O)O; Lys(Me) = CNCCCC[C@H](N)C(=O)O; Me3 = trimethyl (on Lys)

T1: Bdf1 bromodomain 2 (GST-tagged, WT) (Saccharomyces cerevisiae (strain ATCC …, UniProt P35817))
T1 chain: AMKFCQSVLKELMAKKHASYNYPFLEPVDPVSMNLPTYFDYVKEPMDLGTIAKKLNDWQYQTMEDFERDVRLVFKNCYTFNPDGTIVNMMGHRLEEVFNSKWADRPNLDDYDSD

T2: Bdf1 bromodomain 1 (GST-tagged, WT) (Saccharomyces cerevisiae (strain ATCC …, UniProt P35817))
T2 chain: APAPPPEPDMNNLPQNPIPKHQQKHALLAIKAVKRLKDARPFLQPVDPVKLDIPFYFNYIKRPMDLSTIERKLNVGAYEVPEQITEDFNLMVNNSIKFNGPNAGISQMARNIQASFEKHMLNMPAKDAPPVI

B1: H3 1-19 (peptide)
chain: ARTKQTARKSTGGKAPRKQ
modifications: A Rme2a T Kac Q T A Rme2s Kac S T G G K A P R K Q
B2: H3 1-19 (peptide)
chain: ARTKQTARKSTGGKAPRKQ
modifications: A Rme2a T Kme2 Q T A R Kme2 S T G G K A P R K Q
B3: H4 1-19 (peptide)
chain: SGRGKGGKGLGKGGAKRHR
modifications: pS G R G Kac G G K G L G K G G A K R H R
B4: H3 1-19 (peptide)
chain: ARTK(Me3)QTAR(Me2s)K(Ac)STGGKAPRKQ
B5: H3 1-19 (peptide)
chain: ARTKQTARKSTGGKAPRKQ
modifications: A Rme2s T Kme1 Q T A Rme2s Kme3 S T G G K A P R K Q
B6: H4 1-19 (peptide)
chain: SGRGKGGKGLGKGGAKRHR
modifications: S G R G K G G Kac G L G Kac G G A K R H R
B7: H3 1-19 (peptide)
chain: ARTKQTARKSTGGKAPRKQ
modifications: A Rme2s T Kac Q T A Rme2s Kac S T G G K A P R K Q
B8: H3 1-19 (peptide)
chain: ARTKQTA[Arg(Me2s)][Lys(Me2)][pS]TGGKAPRKQ
B9: H3 1-19 (peptide)
chain: ARTKQTARKSTGGKAPRKQ
modifications: A Rme2a T Kme1 Q T A Rme2a Kac S T G G K A P R K Q
B10: H3 1-19 (peptide)
chain: ARTKQTARKSTGGKAPRKQ
modifications: A R T Kme2 Q T A Rme2s Kac S T G G K A P R K Q
B11: H3 1-19 (peptide)
chain: A[Arg(Me2a)]T[Lys(Me3)]QTA[Arg(Me2s)][Lys(Me)]STGGKAPRKQ
B12: H2a 1-19 (peptide)
chain: SGRGKQGGK(Ac)ARAK(Ac)AKSRSS
B13: H3 1-19 (peptide)
chain: ARTKQTARKSTGGKAPRKQ
modifications: A Rme2s T Kme2 Q T A Rme2a Kme1 S T G G K A P R K Q
B14: H2B 1-19 (peptide)
chain: PDPAK(Ac)SAPAPKKG[pS]KKAVT
B15: H3 1-19 (peptide)
chain: ARTKQTARKSTGGKAPRKQ
modifications: A R T K Q T A Rme2s Kme3 pS T G G K A P R K Q
B16: H3 16-35 (peptide)
chain: PRKQLATKAARK[pS]APATGG
B17: H2a 1-19 (peptide)
chain: [pS]GRGK(Ac)QGGKARAK(Ac)AKSRSS
B18: H3 1-19 (peptide)
chain: AR[pT]K(Ac)QTARKSTGGKAPRKQ
B19: H2B 1-19 (peptide)
chain: PDPAK(Ac)SAPAPKK(Ac)GSKKAVT
B20: H4 1-19 (peptide)
chain: SGRGKGGKGLGKGGAKRHR
modifications: S G Rme2a G Kac G G Kac G L G Kac G G A K R H R
B21: H3 1-19 (peptide)
chain: ARTKQTA[Arg(Me2s)]K(Me)S[pT]GGKAPRKQ
B22: H3 1-19 (peptide)
chain: ARTKQTARKSTGGKAPRKQ
modifications: A R T K Q T A R Kme2 pS T G G K A P R K Q
B23: H3 1-19 (peptide)
chain: ARTKQTARKSTGGK(Ac)APRKQ
B24: H2a 1-19 (peptide)
chain: SGRGKQGGKARAKAKSRSS
modifications: histone peptides carry modifications given inline in the sequence and in columns 4-7 (Kac, Kme1/2/3, Rme2a/s, Cit, pS/pT); N-terminus free or acetylated
B25: H3 1-19 (peptide)
chain: ARTKQTA[Arg(Me2a)]K(Ac)[pS][pT]GGKAPRKQ
B26: H4 1-19 (peptide)
chain: SGRGKGGKGLGKGGAKRHR
modifications: S G R G K G G Kac G L G K G G A Kac R H R
B27: H3 1-19 (peptide)
chain: A[Arg(Me2s)]TK(Ac)QTARKSTGGKAPRKQ
B28: H3 1-19 (peptide)
chain: A[Arg(Me2s)]T[Lys(Me2)]QTAR[Lys(Me3)]STGGKAPRKQ
B29: H3 1-19 (peptide)
chain: A[Arg(Me2s)]T[Lys(Me2)]QTA[Arg(Me2s)][Lys(Me3)]STGGKAPRKQ
B30: H3 1-19 (peptide)
chain: ARTKQTARKSTGGKAPRKQ
modifications: A R T Kme1 Q T A Rme2a Kac S T G G K A P R K Q
B31: H3 1-19 (peptide)
chain: ARTKQTA[Arg(Me2s)][Lys(Me)][pS]TGGKAPRKQ
B32: H3 1-19 (peptide)
chain: A[Arg(Me2s)]TK(Me)QTARKSTGGKAPRKQ
B33: c-myc tag (peptide)
chain: EQKLISEEDLA
modifications: histone peptides carry modifications given inline in the sequence and in columns 4-7 (Kac, Kme1/2/3, Rme2a/s, Cit, pS/pT); N-terminus free or acetylated
B34: H3 1-19 (peptide)
chain: A[Arg(Me2s)]TK(Ac)QTA[Arg(Me2a)][Lys(Me)]STGGKAPRKQ
B35: H4 1-19 (peptide)
chain: SGRGKGGKGLGKGGAKRHR
modifications: pS G Rme2s G Kac G G Kac G L G K G G A K R H R
B36: H3 1-19 (peptide)
chain: A[Arg(Me2a)]TK(Ac)QTA[Arg(Me2s)][Lys(Me3)]STGGKAPRKQ
B37: H4 1-19 (peptide)
chain: SGRGKGGKGLGKGGAKRHR
modifications: pS G R G K G G K G L G K G G A K R H R
B38: H3 26-45 (peptide)
chain: RKSAPATGGVKKPHRYRPG
modifications: R K S A P A T G G V Kme1 K P H R Y R P G
B39: H3 1-19 (peptide)
chain: ARTKQTARKSTGGKAPRKQ
modifications: A R T K Q T A R Kme3 S pT G G K A P R K Q
B40: H3 16-35 (peptide)
chain: PRKQLATKAA[Arg(Me2s)][Lys(Me2)]SAPATGG
B41: H3 1-19 (peptide)
chain: A[Arg(Me2a)]T[Lys(Me2)]QTARK(Ac)STGGKAPRKQ
B42: H3 1-19 (peptide)
chain: ARTKQTARKSTGGKAPRKQ
modifications: A Rme2a T Kme3 Q T A Rme2s Kme3 S T G G K A P R K Q
B43: H2a 1-19 (peptide)
chain: SGRGKQGGK(Ac)ARAKAKSRSS
B44: H4 1-19 (peptide)
chain: SGRGKGGKGLGKGGAKRHR
modifications: S G Rme2s G K G G Kac G L G K G G A K R H R
B45: H2B 1-19 (peptide)
chain: PDPAK(Ac)SAPAPKKG[pS]K(Ac)KAVT
B46: H3 1-19 (peptide)
chain: ARTKQTARKSTGGKAPRKQ
modifications: A R T Kac Q T A Rme2a Kac S T G G K A P R K Q
B47: background 02 (peptide)
chain: RRKKKRRKKKRKRKKRK
modifications: R Rme2s K Kme1 Kac R Rme2a Kme2 K Kme3 R Kme1 Rme2s K Kac R K
B48: H3 1-19 (peptide)
chain: ARTKQTARKSTGGKAPRKQ
modifications: A R T Kac Q T A Rme2s Kme2 S T G G K A P R K Q
B49: H3 1-19 (peptide)
chain: A[Arg(Me2a)]T[Lys(Me3)]QTAR[Lys(Me2)]STGGKAPRKQ
B50: H3 1-19 (peptide)
chain: ARTKQTARKSTGGKAPRKQ
modifications: A R T K Q T A R Kme1 pS T G G K A P R K Q
B51: H3 1-19 (peptide)
chain: ARTKQTA[Arg(Me2a)][Lys(Me)]S[pT]GGKAPRKQ

Tests used:
[1] = molecular target: T1, Bdf1 bromodomain 2 (GST-tagged, WT); test: histone peptide array probed with recombinant GST-bromodomain, signal normalised to myc peptide control
[2] = molecular target: T2, Bdf1 bromodomain 1 (GST-tagged, WT); test: as above

Row | Binder | binding score [1] | binding score [2]
1 | B1 | 0.0869 | 0.0518
2 | B2 | 0 | 0
3 | B3 | 0.069 | 0.00108
4 | B4 | 0.0363 | 0.0484
5 | B5 | 0 | 0.00161
6 | B6 | 0.258 | 0.18
7 | B7 | 0.131 | 0.0405
8 | B8 | 0.00541 | 0.000179
9 | B9 | 0.00325 | 0.0124
10 | B10 | 0.0564 | 0.0301
11 | B11 | 0 | 0
12 | B12 | 0.117 | 0.0104
13 | B13 | 0 | 0
14 | B14 | 0 | 0.00412
15 | B15 | 0.00148 | 0.00305
16 | B16 | 0 | 0
17 | B17 | 0.231 | 0
18 | B18 | 0.0271 | 0.0321
19 | B19 | 0.0186 | 0
20 | B20 | 0.386 | 0.29
21 | B21 | 0.00836 | 0
22 | B22 | 0 | 0.00108
23 | B23 | 0.0733 | 0.00108
24 | B24 | 0.0141 | 0
25 | B25 | 0 | 0.00663
26 | B26 | 0.161 | 0.0534

Row | Binder | binding score [1] | binding score [2]
27 | B27 | 0.00482 | 0.0172
28 | B28 | 0 | 0
29 | B29 | 0 | 0
30 | B30 | 0.00915 | 0.0217
31 | B31 | 0 | 0.00394
32 | B32 | 0 | 0
33 | B33 | 1 | 1
34 | B34 | 0.00384 | 0.00161
35 | B35 | 0.299 | 0.126
36 | B36 | 0.00758 | 0.00681
37 | B37 | 0.00305 | 0
38 | B38 | 0.00364 | 0
39 | B39 | 0 | 0
40 | B40 | 0 | 0
41 | B41 | 0.00108 | 0
42 | B42 | 0 | 0
43 | B43 | 0.00797 | 0.00717
44 | B44 | 0.0294 | 0
45 | B45 | 0.168 | 0
46 | B46 | 0.0821 | 0.0576
47 | B47 | 0.006 | 0.00538
48 | B48 | 0.0133 | 0.00251
49 | B49 | 0.00443 | 0
50 | B50 | 0 | 0
51 | B51 | 0 | 0
